According to US20090166224A1:

Columns and labels:
[1] = molecular target: IG ALPHA-1 CHAIN C REGION (human) (UniProt P01876); assay: human serum on M-LAC column, Jacalin displacer fraction, LC-MS/MS; smaller rank = more abundant
[2] = molecular target: IG ALPHA-1 CHAIN C REGION (human) (UniProt P01876); assay: human serum on Con A/WGA/Jacalin column, lectin-specific displacer fraction, LC-MS/MS; grade = SEQUEST rank group (+ = ranks 1-5, ++++ = 16-20)
[3] = molecular target: ALPHA-2-HS-GLYCOPROTEIN (human) (UniProt P02765); assay: as above
SERO… (human) = SERO… (human) (UniProt P02787); assay: as above
[4] = molecular target: asialotransferrin (human) (UniProt P02787); assay: neuraminidized sample on M-LAC column, displacer fraction, peak area of peptide …
asialotransferrin (human), sequence (P02787 20-698 limits assumed): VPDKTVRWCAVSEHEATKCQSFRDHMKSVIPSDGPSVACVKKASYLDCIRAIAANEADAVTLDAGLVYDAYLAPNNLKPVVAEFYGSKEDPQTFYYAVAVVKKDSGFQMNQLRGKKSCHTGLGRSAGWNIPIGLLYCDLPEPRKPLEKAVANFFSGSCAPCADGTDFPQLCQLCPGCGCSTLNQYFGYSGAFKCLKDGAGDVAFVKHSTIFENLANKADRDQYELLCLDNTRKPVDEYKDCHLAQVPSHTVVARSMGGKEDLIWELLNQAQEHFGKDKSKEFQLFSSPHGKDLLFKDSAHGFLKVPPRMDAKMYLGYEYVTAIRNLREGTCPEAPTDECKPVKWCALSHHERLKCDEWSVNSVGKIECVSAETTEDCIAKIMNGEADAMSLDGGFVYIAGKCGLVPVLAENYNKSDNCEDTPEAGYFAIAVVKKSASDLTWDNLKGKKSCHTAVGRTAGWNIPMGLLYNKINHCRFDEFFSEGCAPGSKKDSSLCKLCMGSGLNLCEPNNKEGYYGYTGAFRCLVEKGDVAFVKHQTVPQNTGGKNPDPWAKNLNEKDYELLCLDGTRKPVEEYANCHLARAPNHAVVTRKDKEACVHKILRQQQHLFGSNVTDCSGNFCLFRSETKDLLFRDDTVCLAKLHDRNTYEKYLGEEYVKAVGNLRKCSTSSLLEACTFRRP

[5] = molecular target: Haptoglobin in neuraminidase-treated serum (human) (UniProt P00738); assay: as above
[6] = molecular target: Apolipoprotein A-I in fucosidase-treated serum (human) (UniProt P02647); assay: fucosidase-treated serum on M-LAC column, displacer fraction, extracted ion chromatogram of peptide …
Apolipoprotein A-I in fucosidase-treated serum (human), sequence (P02647 25-267 limits assumed): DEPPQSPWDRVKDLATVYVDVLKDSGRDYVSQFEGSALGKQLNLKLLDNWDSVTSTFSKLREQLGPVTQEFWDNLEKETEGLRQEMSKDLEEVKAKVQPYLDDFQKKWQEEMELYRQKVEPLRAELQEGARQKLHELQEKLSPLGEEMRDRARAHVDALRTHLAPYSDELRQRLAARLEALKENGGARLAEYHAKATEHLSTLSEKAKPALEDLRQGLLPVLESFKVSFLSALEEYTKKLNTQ

[7] = molecular target: Alpha-1-acid-glycoprotein in fucosidase-treated serum (human) (UniProt P02763); assay: as above
Alpha-1-acid-glycoprotein in fucosidase-treated serum (human), sequence (P02763 19-201 limits assumed): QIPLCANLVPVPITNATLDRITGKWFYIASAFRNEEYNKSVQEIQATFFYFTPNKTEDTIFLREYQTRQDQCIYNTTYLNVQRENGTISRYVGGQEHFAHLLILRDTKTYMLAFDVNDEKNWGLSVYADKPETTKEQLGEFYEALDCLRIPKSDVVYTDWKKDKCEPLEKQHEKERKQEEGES

[8] = molecular target: Ceruloplasmin in fucosidase-treated serum (human) (UniProt P00450); assay: as above
Ceruloplasmin in fucosidase-treated serum (human), sequence (P00450 20-1065 limits assumed): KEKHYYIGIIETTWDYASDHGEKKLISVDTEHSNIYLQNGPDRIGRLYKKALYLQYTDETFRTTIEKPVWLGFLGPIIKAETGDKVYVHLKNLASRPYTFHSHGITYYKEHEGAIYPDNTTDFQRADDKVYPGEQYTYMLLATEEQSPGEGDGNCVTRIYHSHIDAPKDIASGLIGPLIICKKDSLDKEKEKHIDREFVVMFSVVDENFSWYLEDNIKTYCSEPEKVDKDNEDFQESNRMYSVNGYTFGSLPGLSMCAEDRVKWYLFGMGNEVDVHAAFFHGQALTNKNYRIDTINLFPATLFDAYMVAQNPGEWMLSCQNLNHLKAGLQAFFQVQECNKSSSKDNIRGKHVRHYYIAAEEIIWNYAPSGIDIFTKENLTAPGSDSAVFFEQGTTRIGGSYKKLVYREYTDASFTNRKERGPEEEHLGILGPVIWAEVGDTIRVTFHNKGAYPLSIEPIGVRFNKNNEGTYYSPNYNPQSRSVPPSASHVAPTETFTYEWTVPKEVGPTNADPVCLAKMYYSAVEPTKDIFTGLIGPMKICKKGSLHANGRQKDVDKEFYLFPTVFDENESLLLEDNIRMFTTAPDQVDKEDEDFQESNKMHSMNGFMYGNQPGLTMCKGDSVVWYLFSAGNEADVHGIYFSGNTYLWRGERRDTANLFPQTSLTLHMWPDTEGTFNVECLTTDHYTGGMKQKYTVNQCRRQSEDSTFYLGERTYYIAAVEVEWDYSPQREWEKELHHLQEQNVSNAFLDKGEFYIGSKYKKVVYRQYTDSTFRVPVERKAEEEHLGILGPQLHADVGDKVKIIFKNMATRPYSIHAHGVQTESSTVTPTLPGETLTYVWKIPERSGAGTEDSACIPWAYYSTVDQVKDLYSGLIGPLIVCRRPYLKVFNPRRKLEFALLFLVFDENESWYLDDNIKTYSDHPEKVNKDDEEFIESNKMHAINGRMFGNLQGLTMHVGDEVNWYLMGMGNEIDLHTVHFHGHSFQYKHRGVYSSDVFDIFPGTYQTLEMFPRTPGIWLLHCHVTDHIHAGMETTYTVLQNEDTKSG

[9] = molecular target: Haptoglobin in fucosidase-treated serum (human) (UniProt P00738); assay: as above
[10] = molecular target: Alpha-2HS-glycoprotein in neuraminidase-treated serum (human) (UniProt P02765); assay: neuraminidase-treated serum on M-LAC column, displacer fraction, LC-MS/MS; smaller rank = more abundant
[11] = molecular target: asialotransferrin (human) (UniProt P02787); assay: as above
[12] = molecular target: Beta-2-glycoprotein in neuraminidase-treated serum (human) (UniProt P02749); assay: as above
[13] = molecular target: asialotransferrin (human) (UniProt P02787); assay: neuraminidase-treated serum on M-LAC column, displacer fraction, extracted ion chromatogram of peptide …
… ZONE PROTEIN (human) [14] = molecular target: … ZONE PROTEIN (human) (UniProt P20742); assay: human serum on M-LAC column, displacer fraction, LC-MS/MS; smaller rank = more abundant
… ZONE PROTEIN (human), sequence (P20742 26-1482 limits assumed): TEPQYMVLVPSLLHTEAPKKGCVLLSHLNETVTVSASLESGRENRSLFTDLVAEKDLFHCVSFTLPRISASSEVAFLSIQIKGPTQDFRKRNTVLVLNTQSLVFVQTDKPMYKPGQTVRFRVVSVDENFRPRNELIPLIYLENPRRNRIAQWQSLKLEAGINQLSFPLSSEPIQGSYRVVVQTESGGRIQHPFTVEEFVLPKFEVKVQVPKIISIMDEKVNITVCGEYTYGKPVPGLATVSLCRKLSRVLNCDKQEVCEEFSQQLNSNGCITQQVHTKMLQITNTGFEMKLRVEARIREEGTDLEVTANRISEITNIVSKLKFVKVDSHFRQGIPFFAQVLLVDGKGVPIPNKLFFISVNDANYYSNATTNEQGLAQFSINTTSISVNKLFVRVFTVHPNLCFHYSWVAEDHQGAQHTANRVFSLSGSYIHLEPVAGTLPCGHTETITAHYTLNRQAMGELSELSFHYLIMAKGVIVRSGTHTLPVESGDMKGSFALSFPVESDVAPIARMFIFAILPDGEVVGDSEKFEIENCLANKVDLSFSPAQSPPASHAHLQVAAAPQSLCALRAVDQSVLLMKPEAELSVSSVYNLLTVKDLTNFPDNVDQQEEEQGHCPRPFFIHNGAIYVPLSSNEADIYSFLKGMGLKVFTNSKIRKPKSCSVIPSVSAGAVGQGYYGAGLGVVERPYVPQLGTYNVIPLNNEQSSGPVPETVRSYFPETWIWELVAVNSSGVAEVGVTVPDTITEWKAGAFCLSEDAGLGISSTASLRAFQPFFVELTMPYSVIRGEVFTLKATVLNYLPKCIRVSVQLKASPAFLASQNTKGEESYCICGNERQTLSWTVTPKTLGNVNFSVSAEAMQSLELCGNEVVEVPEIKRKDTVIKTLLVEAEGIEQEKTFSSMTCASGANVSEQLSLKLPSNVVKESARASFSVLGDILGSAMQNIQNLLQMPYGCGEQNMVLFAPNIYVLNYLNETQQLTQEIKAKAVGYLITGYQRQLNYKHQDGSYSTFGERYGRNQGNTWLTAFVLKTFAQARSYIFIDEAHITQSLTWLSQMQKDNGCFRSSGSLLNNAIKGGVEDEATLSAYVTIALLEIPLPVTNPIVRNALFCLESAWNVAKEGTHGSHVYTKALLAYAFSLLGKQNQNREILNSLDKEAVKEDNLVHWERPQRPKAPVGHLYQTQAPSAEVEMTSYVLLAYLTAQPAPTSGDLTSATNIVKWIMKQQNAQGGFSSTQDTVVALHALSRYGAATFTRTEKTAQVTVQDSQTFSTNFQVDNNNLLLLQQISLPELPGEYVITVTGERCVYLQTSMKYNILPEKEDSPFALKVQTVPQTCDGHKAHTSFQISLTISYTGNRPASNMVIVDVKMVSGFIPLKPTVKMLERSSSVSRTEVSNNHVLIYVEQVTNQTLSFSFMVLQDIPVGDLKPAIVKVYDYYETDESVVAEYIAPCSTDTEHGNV

… ZONE PROTEIN (human) [15] = molecular target: … ZONE PROTEIN (human) (UniProt P20742); assay: human serum on Con A/WGA/Jacalin column, lectin-specific displacer fraction, LC-MS/MS; grade = SEQUEST rank group (+ = ranks 1-5, ++++ = 16-20)
[16] = molecular target: Pregnancy zone protein in fucosidase-treated serum (human) (UniProt P20742); assay: fucosidase-treated serum on M-LAC column, displacer fraction, extracted ion chromatogram of peptide … (so in the source)
Pregnancy zone protein in fucosidase-treated serum (human), sequence (P20742 26-1482 limits assumed): as above

[17] = molecular target: Pregnancy zone protein in fucosidase-treated serum (human) (UniProt P20742); assay: fucosidase-treated serum on M-LAC column, displacer fraction, LC-MS/MS; smaller rank = more abundant
[18] = molecular target: Inter-alpha-trypsin inhibitor (human); assay: human serum on M-LAC column, displacer fraction, LC-MS/MS; smaller rank = more abundant
[19] = molecular target: APOLIPOPROTEIN A-I (human) (UniProt P02647); assay: human serum on Con A/WGA/Jacalin column, lectin-specific displacer fraction, LC-MS/MS; grade = SEQUEST rank group (+ = ranks 1-5, ++++ = 16-20)
CERULOPLASMIN (human) = CERULOPLASMIN (human) (UniProt P00450); assay: as above
[20] = molecular target: Inter-alpha-trypsin inhibitor in fucosidase-treated serum (human); assay: fucosidase-treated serum on M-LAC column, displacer fraction, extracted ion chromatogram of peptide …
[21] = molecular target: Inter-alpha-trypsin inhibitor in fucosidase-treated serum (human); assay: fucosidase-treated serum on M-LAC column, displacer fraction, LC-MS/MS; smaller rank = more abundant
[22] = molecular target: Inter-alpha-trypsin inhibitor (human); assay: human serum on M-LAC column, displacer fraction, extracted ion chromatogram of peptide …
HAPTOGLOBIN-2 (human) = HAPTOGLOBIN-2 (human) (UniProt P00738); assay: as above

peptide peak area in displacer fraction [4] | peptide peak area in displacer fraction [5] | peptide peak area in displacer fraction [6] | peptide peak area in displacer fraction [7] | peptide peak area in displacer fraction [8] | peptide peak area in displacer fraction [9] | Substance | SEQUEST rank in displacer fraction [10] | SEQUEST rank in displacer fraction [11] | SEQUEST rank in displacer fraction [12] | SEQUEST rank in displacer fraction (… ZONE PROTEIN (human) [14]) | peptide peak area in displacer fraction [16] | SEQUEST rank in displacer fraction [17] | further results
28 | 12.6 | 4.3e+07 counts | 1.7e+07 counts | 6.2e+06 counts | 2.2e+07 counts | Jacalin lectin, agarose-bound (from UniProt P18670 1-133; P18671 1-20) | 7 | 1 | 23 | – | – | – | SEQUEST rank in displacer fraction [1]: 1; SEQUEST ranking (relative abundance in the Jacalin displacement fraction) [2]: 1 to 5 rank; SEQUEST ranking (relative abundance in the Jacalin displacement fraction) [3]: 6 to 10 rank; SEQUEST ranking (relative abundance in the Jacalin displacement fraction) (SERO… (human)): 16 to 20 rank; peptide peak area in displacer fraction ([13]; peptide at M/Z 530.2): 2.4e+07 counts; peptide peak area in displacer fraction ([13]; peptide at M/Z 790.1): 8.3e+06 counts
1.6 | 163 | 1.6e+07 counts | 5e+07 counts | 1.1e+07 counts | 8.2e+07 counts | wheat germ agglutinin (WGA), agarose-bound (from UniProt P10968 27-197) | – | – | – | 7 | 5.2e+06 counts | 17 | SEQUEST ranking (relative abundance in the WGA displacement fraction) [3]: 11 to 15 rank; SEQUEST ranking (relative abundance in the WGA displacement fraction) (… ZONE PROTEIN (human) [15]): 6 to 10 rank

Substance | peptide peak area in displacer fraction [4] | peptide peak area in displacer fraction [5] | peptide peak area in displacer fraction [6] | peptide peak area in displacer fraction [7] | peptide peak area in displacer fraction [8] | peptide peak area in displacer fraction [9] | SEQUEST rank in displacer fraction [10] | SEQUEST rank in displacer fraction [11] | SEQUEST rank in displacer fraction [12] | SEQUEST rank in displacer fraction (… ZONE PROTEIN (human) [14]) | peptide peak area in displacer fraction [16] | SEQUEST rank in displacer fraction [17] | further results
Concanavalin A (Con A), agarose-bound (from UniProt P02866 30-281) | 36 | 46.9 | 1.2e+07 counts | 1e+07 counts | 9.8e+06 counts | 5.1e+07 counts | 31 | 2 | 24 | 34 | 1.6e+07 counts | 25 | SEQUEST rank in displacer fraction [18]: 22; SEQUEST ranking (relative abundance in the Con A displacement fraction) (… ZONE PROTEIN (human) [15]): 16 to 20 rank; SEQUEST ranking (relative abundance in the Con A displacement fraction) [19]: 11 to 15 rank; SEQUEST ranking (relative abundance in the Con A displacement fraction) (CERULOPLASMIN (human)): 16 to 20 rank; SEQUEST ranking (relative abundance in the Con A displacement fraction) (SERO… (human)): 1 to 5 rank; peptide peak area in displacer fraction [20]: 0 counts; SEQUEST rank in displacer fraction [21]: 13; peptide peak area in displacer fraction [22]: 500000 counts; peptide peak area in displacer fraction (HAPTOGLOBIN-2 (human)): 4e+07 counts
